Data as given in patent US11426447B2, “Neuregulin for the treatment of tumors of the nervous system” (LEIBNIZ-INSTITUT FUR …, priority 2016, dated 2022).

Test system: Schwann cells
Assay: Neuropathological assessment (HE, immunolabelling) of sciatic nerve cross sections 3 months after crush injury
Assay type: in vivo, P0-Cre;Nefh-Cre;Nf2fl/+ mice
Conditions: KO mice
Description: For histological workup, paraformaldehyd fixed nerve samples were embedded in paraffin, cut at the site of the largest diameter and mounted as a tissue micro array. 4 μm thick cross sections were used for H&E staining and immunohistochemical labelling of S100 (1:8000; Dako), P0 (1:300; Bioss Antibodies), phospho-c-Jun (Ser73; 1:500; Cell Signalling; 8752), ErbB2 (1:500; Cell Signaling) and Arginase-1 (1:200; Santa Cruz; H-52) in an automated Ventana stainer (Ventana Medical Systems, USA) using standard antigen retrieval protocols (CC1st, no pretreatment for S100-protein). Onion-bulbs and schwannoma-like structures were assessed in H&E stained slides.
Immunohistochemistry was performed as described in (Schulz et al., 2010). Briefly, paraffin-embedded, longitudinal sections of sciatic nerves were rehydrated, boiled in 10 mM sodium citrate buffer (pH9) for 30 min in a microwave and subsequently treated with 0,5% Triton X-100 for 10 min. Sections incubated in 0.2% gelatine and 2% goat serum diluted in PBS at least 2 h. Sections submersed in the primary antibody solution overnight at 4° C. The following primary antibodies were used: Myelin protein zero (P0; 1:200; Abcam; ab39375), neurofilament (1:200; BioLegend; SMI312), myelin basic protein (MBP; 1:500; Millipore; MAB384)), Ki-67 (1:200; eBioscience; Clone: SolA15), lba-1 (1:200; Wako), and p75 (1:200; Merck Millipore; AB 1554). After vigorous washings, sections incubated with secondary antibody solution (Alexa488-, Alexa546- or Alexa647-conjugated anti-mouse, -rat, -chicken and -rabbit antibodies, 1:500 in PBS, Invitrogen) at room temperature for 2 h. Finally specimens washed in PBS, counterstained using DAPI (1 μg/ml PBS, 10 min) dehydrated and embedded. DAPI-stained cell nuclei or lba-1-positive cells were counted using ImageJ plugin ‘Particle Analysis’ from images acquired with 10× magnification after standardized background reduction and threshold setting.
Sciatic nerve crush injury was performed on WT and Nf2flox;P0-Cre;Nefh-Cre mutant animals as described in Example 1. The Nf2flox;P0-Cre;Nefh-Cre mutant animals were intraperitoneally injected every day with 10 μg of rhNRG1 per kg body weight (KO rhNRG1). For a control a PBS solution was systemically administered to WT animals and Nf2flox;P0-Cre;Nefh-Cre mutant animals (WT vehicle and KO vehicle). Sciatic nerve lysates were taken from animals after 3 month of treatment upon which immunochemistry was performed as described in Example 1.

[1] = systemic rhNRG1, 3 months after crush injury
[2] = systemic rhNRG1 vs saline-treated same genotype

B1: rhNRG1: EGF domain containing 7 kDa protein of recombinant human Neuregulin 1, purchased from Reprokine (#RKQ02297) (protein, listed as Homo sapiens)
chain: SHLVKCAEKEKTFCVNGGECFMVKDLSNPSRYLCKCPNEFTGDRCQNYVMASFYKHLGIEF
rhNRG1 injections
  number of immature Schwann cells (p75 staining): relevantly decreased
rhNRG1 vs KO control injections
  immunoreactivity of schwannoma marker CPI-17: relevantly lower
[1]
  S100 and MPZ immunoreactivity: restricted to Schwann cells with myelinating phenotype
  nerve regeneration (histology): almost regular regeneration
[2]
  expression of Neuregulin1 (immunolabelling): greatly reduced
  expression of receptor tyrosine kinase ErbB2 (immunolabelling): greatly reduced
